Experimental findings from PMC4798948, “Nucleocapsid assembly in pneumoviruses is regulated by conformational switching of the N protein” (eLife, 2016) are described below.

Data set [1] deals with the molecule itself. Description: electron cryomicroscopy with 2D classification; purified N-RNA preparation plunge-frozen on holey carbon grids; 2D-class averages with RELION.
Data set [2] deals with the molecule itself. Description: crystal structure; N-RNA ring (~4 mg/mL), RNA-bound; 100 mM Tris/Bicine pH 8.5, 90 mM NPS, 37.5% MPD/PEG 1000/PEG 3350 (MORPHEUS); 4.2 Å; ten-fold non-crystallographic symmetry.

“And” between values parts separate entries of the source, which are not always exact repeats. Identical values can stand only once.

Usually stoichiometry N stands for a count of units in the complex or per binding partner.

B1: HMPV nucleoprotein N, assembled RNA-bound state (N-RNA rings) (natural protein)
chain: MSLQGIHLSDLSYKHAILKESQYTIKRDVGTTTAVTPSSLQQEITLLCGEILYAKHADYKYAAEIGIQYISTALGSERVQQILRNSGSEVQVVLTRTYSLGKIKNNKGEDLQMLDIHGVEKSWVEEIDKEARKTMATLLKESSGNIPQNQRPSAPDTPIILLCVGALIFTKLASTIEVGLETTVRRANRVLSDALKRYPRMDIPKIARSFYDLFEQKVYHRSLFIEYGKALGSSSTGSKAESLFVNIFMQAYGAGQTMLRWGVIARSSNNIMLGHVSVQAELKQVTEVYDLVREMGPESGLLHLRQSPKAGLLSLANCPNFASVVLGNASGLGIIGMYRGRVPNTELFSAAESYAKSLKESNKINFSSLGLTDEEKEAAEHFLNVSDDSQNDYE
notes: Nucleoprotein N of human metapneumovirus, strain NL1-00 (A1), full-length N gene, 394 residues; each N subunit contacts seven RNA nucleotides; also called subnucleocapsid ring; decameric N-RNA ring; source: Rosetta2 E. coli, purified (Ni-NTA, Superose 6), with RNA from the expression host
For the protein B1, the “stoichiometry N” value in data set [1] was 9 and 11; in data set [2], 10.
